Experimental data taken from patent publication US11015206B2, “Compositions and methods comprising sequences having hydroxyphenylpyruvate dioxygenase (HPPD) activity” (PIONEER HI-BRED INTERNATIONAL, INC., priority 2014, dated 2021).
Numbering of substitutions follows the chain as printed. Names may count otherwise. Each block holds one molecule with its values, some of them ahead of it.

What was measured:
Format in all cases: biochemical, Z. mays
[1] = test system: 4-hydroxyphenylpyruvate dioxygenase (HPPD); test: HPPD activity coupled assay with HGD; substrate saturation kinetic parameters (kcat, KM)
Procedure: Wild type and shuffled variant genes were cloned into pVER7062, a modified version of pET24a(+)(Novagen), which places six histidine residues at the N-terminus of the expressed protein. Vectors were electroporated into E. coli host strain BL21(DE3). Cells were grown at 30 C in rich medium such as 2×YT containing the selection antibiotic, kanamycin. At a density of about 0.6 OD600, IPTG was added to 0.2 mM, the temperature was reduced to 16 C and growth continued for another 24 hrs. Cells were harvested by centrifugation and stored at −80 C. Cell pellets were lysed in BPER (Pierce) protein extraction reagent containing 0.2 mg/ml lysozyme, 1 mM dithiothreitol, protease inhibitor cocktail (Sigma, bacterial cocktail) and endonuclease. Insoluble cellular debris was removed by centrifugation. HPPD protein was purified from the soluble protein solution by affinity chromatography on the nickel form of nitrilotriacetic acid (Ni-NTA) resin (Qiagen). Protein concentrations were determined by the Bradford method, as supplied by Bio-Rad.
HPPD catalyzes the conversion of 4-hydroxyphenylpyruvate (HPP) to homogentisate (FIG. 17). […] However, the product of the ensuing reaction in tyrosine metabolism, maleylacetoacetate, absorbs strongly at 320 nm. Furthermore, the enzyme catalyzing that reaction is also a dioxygenase having similar mechanism and buffer requirements as HPPD, making homogentisate dioxygenase (HGD) an ideal partner in a coupled assay, as shown.
The HDG gene from Pseudomonas aeruginosa (Amaya (2004) Arch Biochem Biophys 421, 135-142) was cloned into pVER7062 and electroporated into E. coli strain BL21(DE3). The enzyme was produced by methods similar to those described for HPPD. The purified enzyme has a KM for homogentisate of 23 μM and a kcat of 100/sec, properties highly suited for instantly converting the homogentisate produced by HPPD to maleylacetoacetate.
HPPD activity was measured by placing an aliquot (e.g., 6 μl) of the substrate HPP at 50-fold the desired final concentration into the wells of a low UV-absorbing assay plate. Reactions were started by adding a mixture (e.g., 294 μl) containing 25 mM Hepes, pH 7, 2 mM ascorbate, 10 μM FeSO4, 1 to 100 μM HPP, 50 nM HGD and 5 to 240 nM HPPD. Absorbance at 320 nm was monitored continuously in a plate-reading spectrophotometer (Spectramax, Molecular Devices).
The catalytic performance of wild-type HPPD and variants generated by shuffling was assessed by determining the substrate saturation kinetic parameters. The Michaelis-Menten kinetics protocol of the Spectramax software was customized for HPP concentrations ranging from 3.33 μM to 100 μM. Reaction rates were measured as described above for each concentration of HPP. The software returns values of KM and Vmax using the Lineweaver-Burke transformation of the Michaelis-Menten equation.

[2] = test system: 4-hydroxyphenylpyruvate dioxygenase (HPPD); test: ON rate ratio: HPPD reaction rate with vs without inhibitor in the 70 to 90 second interval; details: for ON rate ratio: mesotrione; for ON ratio (parameters with tembotrione): Table 5
Summary of the method: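 Indicator of inhibitor on-rate: reaction velocity in the 70 to 90 second window with 4 μM inhibitor divided by that without. Reactions contained 100 μM HPP and 60 or 120 nM HPPD; slower binding gives a larger ratio.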

[3] = test system: 4-hydroxyphenylpyruvate dioxygenase (HPPD); test: OFF rate ratio: release of inhibitor from pre-formed enzyme-inhibitor complex; details: for OFF ratio (parameters with tembotrione): Table 5
Summary of the method: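 Inhibitor release from pre-formed complex (enzyme 7.2 μM, inhibitor 8 μM, 1 h RT) tracked as accelerating HPPD activity at 320 nm over 12 min, coupled via 50 nM HGD with 100 μM HPP at pH 7. OFF rate ratio: steady-state velocity relative to uninhibited initial velocity.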

[4] = test system: 4-hydroxyphenylpyruvate dioxygenase (HPPD); test: Insensitivity parameter (ON × OFF) and trait fitness (ON × OFF × kcat/KM or × kcat); details: for Insensitivity ON × OFF, Fold vs wt: vs maize wild type; for ON × OFF × kcat, Value / ON × OFF × kcat, Fold vs wt / ON × OFF, fold vs wt / ON × OFF (parameters with tembotrione): Table 5, tembotrione; for ON × OFF × kcat, Fold vs wt / ON × OFF, fold vs wt: fold vs maize wild type HPPD; for ON × OFF (parameters with tembotrione): insensitivity parameter
Summary of the method: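 Trait fitness combines catalysis and insensitivity as kcat/KM × ON rate ratio × OFF rate ratio. The insensitivity parameter is the product of ON and OFF rate ratios, used in place of KD because the ON rate ratio is inverse.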

[5] = test system: 4-hydroxyphenylpyruvate dioxygenase (HPPD); test: Estimate of kcat from initial rate at saturating hydroxyphenylpyruvate without inhibitor (ON rate ratio assay); details: Table 5; single substitutions in Round 7 variant 9070 (SEQ ID NO:2); estimate from initial rate at saturating hydroxyphenylpyruvate without inhibitor
Summary of the method: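 kcat was estimated from the initial reaction rate with known enzyme level (60 or 120 nM HPPD). Hydroxyphenylpyruvate was at a saturating 100 μM, with no inhibitor present.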

[6] = Table 2, E. coli purified proteins
[7] = Table 6, single substitutions in SEQ ID NO:2
[8] = DKN (diketonitrile form of isoxaflutole)
[9] = DKN (isoxaflutole diketonitrile)

B1: R8-1973: Round 8, variant 1973 (SEQ ID NO:8), 26 amino acid substitutions relative to native maize HPPD (protein)
chain: MGPTPTATAAGAAVAAASAAEQAAFRLVGHRNFVRFNPRSDRFQTLAFHHVELWCADAASAAGRFSFALGVPLAARSDLSTGNSAHASLLLRSGSLSLLFTAPYAHGADAATAALPSFSAAAARRFAADHGLAVRAVALRVADAEDAFRASVAAGARPAFGPVDLGRGFRLAEVELYGDVVLRYVSYPDGAAGEPFLPGFEGVASPGAADLGLNRFDHIVGNVPELAPAAAYMAGFTGFHEFAEFTTEDVGTTESGLNSMALANNSENVLLPLNEPVHGTKRRSQIQTFLDHHGGPGVQHIALASDDVLRTLREMRARSAMGGFEFLPPPLSDYYDGVRKCAGDVLTEAQINECQELGVMVDRDDEGVLLQIFTKPVGDRPTFFLEIIQRIGCREKDEKGQEYQKGGCGGFGKGNFGQLFKSIEDYEKSLEKKRAAAAATAQGS
modifications: Zea mays variant form created by artificial means.
Km [1, 6]: 2 µM | kcat [1, 6]: 1.18 s⁻¹ | ON rate ratio [2]: 0.73 | OFF rate ratio ([3]; mesotrione): 1.00 | Fitness Fold vs Zm wt ([4]; mesotrione): 12.2 | Insensitivity parameter, ON × OFF ([4]; mesotrione, Table 2): 0.73 | Insensitivity ON × OFF, Fold vs wt ([4]; mesotrione): 11.9

B4: 206Q: single substitution P206Q in SEQ ID NO:2 (protein)
chain: B1 chain with P206Q, L211Y, N214S, K340R, E366Q, R394M, K432A, R434Q
modifications: Zea mays variant form created by artificial means.
Km ([1]; Table 6): 2.63 µM | kcat [1, 7]: 1.11 s⁻¹ | ON ratio (parameters with tembotrione) [2]: 0.74 | OFF ratio (parameters with tembotrione) [3]: 0.21 | Insensitivity parameter, ON × OFF [4, 8]: 0.26 | ON × OFF × kcat/km fold vs Round 7, variant 9070 [4, 9]: 1.2 | Insensitivity parameter, ON × OFF ([4]; Mesotrione, Table 6): 0.46 | ON × OFF × kcat/km fold vs Round 7, variant 9070 ([4]; Sulco (sulcotrione)): 1.0 | Insensitivity parameter, ON × OFF ([4]; Sulcotrione): 0.53 | ON × OFF × kcat, Value [4]: 5.57 | ON × OFF × kcat, Fold vs wt [4]: 5.20 | ON × OFF, fold vs wt [4]: 30.8 | ON × OFF (parameters with tembotrione) [4]: 0.16 | Insensitivity parameter, ON × OFF ([4]; Tembotrione): 0.19 | ON × OFF × kcat/km fold vs Round 7, variant 9070 ([4]; Topra (topramezone)): 1.1 | Insensitivity parameter, ON × OFF ([4]; Topramezon): 0.27 | ON × OFF × kcat/km fold vs Round 7, variant 9070 ([4]; meso (mesotrione)): 1.1 | ON × OFF × kcat/km fold vs Round 7, variant 9070 ([4]; tembo (tembotrione)): 1.4 | kcat [5]: 0.59 s⁻¹

B5: R6-9075: shuffled maize HPPD variant 9075, SEQ ID NO:79; 9070 with R316 changed to Q (protein)
chain: B1 chain with L211Y, N214S, R316Q, K340R, E366Q, R394M, K432A, R434Q
modifications: Zea mays variant form created by artificial means.
notes: 9070 with R316 changed to Q
Km [1, 6]: 4 µM | kcat [1, 6]: 1.9 s⁻¹ | ON rate ratio [2]: 0.68 | OFF rate ratio ([3]; mesotrione): 0.68 | Fitness Fold vs Zm wt ([4]; mesotrione): 6.4 | Insensitivity parameter, ON × OFF ([4]; mesotrione, Table 2): 0.46 | Insensitivity ON × OFF, Fold vs wt ([4]; mesotrione): 7.6

Second part, led by results:

time span to reach the steady state (dissociation from inhibitor) ([3]; mesotrione, enzyme 240 nM): 80 s
B2: SEQ ID NO:78: improved shuffled variant of maize HPPD (protein)
chain: MGPTPTATAAGAAVAAASAAEQAAFRLVGHRNFVRFNPRSDRFHTLAFHHVELWCADAASAAGRFSFALGAPLAARSDLSTGNSAHASLLLRSGSLSFLFTAPYAHGADAATAALPSFSAAAARRFAADHGLAVRAVALRVADAEDAFRASVAAGARPAFGPVDLGRGFRLAEVELYGDVVLRYVSYPDGAAGEPFLPGFEGVASPGAADYGLSRFDHIVGNVPELAPAAAYFAGFTGFHEFAEFTTEDVGTAESGLNSMALANNSENVLLPLNEPVHGTKRRSQIQTFLDHHGGPGVQHIALASDDVLRTLREMQARSAMGGFEFLPPPPSDYYDGVRRCAGDVLTEAQINECQELGVMVDRDDQGVLLQIFTKPVGDRPTFFLEIIQRIGCMEKDEKGQEYQKGGCGGFGKGNFGQLFKSIEDYEKSLEAKQAAAAATAQGS
modifications: Zea mays variant form created by artificial means.
kcat ([1]; text b374): about 220 min^−1

ON ratio (parameters with tembotrione) [2]: 0.76 | OFF ratio (parameters with tembotrione) [3]: 0.17 | Insensitivity parameter, ON × OFF [4, 8]: 0.26 | Insensitivity parameter, ON × OFF ([4]; Mesotrione, Table 6): 0.52 | Insensitivity parameter, ON × OFF ([4]; Sulcotrione): 0.59 | ON × OFF, fold vs wt [4]: 25.7 | ON × OFF (parameters with tembotrione) [4]: 0.13 | Insensitivity parameter, ON × OFF ([4]; Tembotrione): 0.21 | Insensitivity parameter, ON × OFF ([4]; Topramezon): 0.29
B3: 432K: single substitution A432K in SEQ ID NO:2 (protein)
chain: B1 chain with L211Y, N214S, K340R, E366Q, R394M, R434Q
modifications: Zea mays variant form created by artificial means.
Km ([1]; Table 6): 2.08 µM | kcat [1, 7]: 1.12 s⁻¹ | ON × OFF × kcat/km fold vs Round 7, variant 9070 [4, 9]: 1.6 | ON × OFF × kcat/km fold vs Round 7, variant 9070 ([4]; Sulco (sulcotrione)): 1.5 | ON × OFF × kcat, Value [4]: 4.13 | ON × OFF × kcat, Fold vs wt [4]: 3.86 | ON × OFF × kcat/km fold vs Round 7, variant 9070 ([4]; Topra (topramezone)): 1.5 | ON × OFF × kcat/km fold vs Round 7, variant 9070 ([4]; meso (mesotrione)): 1.6 | ON × OFF × kcat/km fold vs Round 7, variant 9070 ([4]; tembo (tembotrione)): 1.4 | kcat [5]: 0.525 s⁻¹

ON rate ratio [2]: 0.20 | OFF rate ratio ([3]; mesotrione): 0.007 | Fitness Fold vs Zm wt ([4]; mesotrione): 0.02 | Insensitivity parameter, ON × OFF ([4]; mesotrione, Table 2): 0.0014 | Insensitivity ON × OFF, Fold vs wt ([4]; mesotrione): 0.023
B6: G. max wt: wild-type HPPD enzyme from soybean (protein)
chain: MPMYTPSLSAPSSNHIQPSVTLPLYITTTKLNLKQQHHTTPMPIPMCNEIQAQAQAQAQPGFKLVGFKNFVRTNPKSDRFQVNRFHHIEFWCTDATNASRRFSWGLGMPIVAKSDLSTGNQIHASYLLRSGDLSFLFSAPYSPSLSAGSSAASSASIPSFDAATCLAFAAKHGFGVRAIALEVADAEAAFSASVAKGAEPASPPVLVDDRTGFAEVRLYGDVVLRYVSYKDAAPQAPHADPSRWFLPGFEAAASSSSFPELDYGIRRLDHAVGNVPELAPAVRYLKGFSGFHEFAEFTAEDVGTSESGLNSVVLANNSETVLLPLNEPVYGTKRKSQIETYLEHNEGAGVQHLALVTHDIFTTLREMRKRSFLGGFEFMPSPPPTYYANLHNRAADVLTVDQIKQCEELGILVDRDDQGTLLQIFTKPVGDRPTIFIEIIQRIGCMVEDEEGKVYQKGACGGFGKGNFSELFKSIEEYEKTLEAKRTA
modifications: Glycine max
notes: wild-type HPPD enzyme from soybean
Km [1, 6]: 3 µM | kcat [1, 6]: 1.67 s⁻¹
